# Results published in patent publication US20250382352A1 (SCG CELL THERAPY PTE, published 2025).
# Substitutions are numbered along the chain they refer to.
# B1: BsAb2-5-020 (bispecific antibody)
# heavy: not shown
# light: QTVVTQEPSFSVSPGGTVTLTCRSSTGAVTTSNYANWVQQTPGQAPRGLIGGTNKRAPGVPDRFSGSILGDKAALTITGAQADDESDYYCALWYSNLWVFGGGTKLTVLRTVAAPSVFIFPPSDEQLKSGTASVVCLLNNFYPREAKVQWKVDNALQSGNSQESVTEQDSKDSTYSLSSTLTLSKADYEKHKVYACEVTHQGLSSPVTKSFNRGEC
# notes: also called VH4VL5
# B2: BsAb2-5-015 (bispecific antibody)
# heavy: not shown
# light: B1 light
# notes: also called VH3VL5
# B3: BsAb2-6-012 (bispecific antibody)
# heavy: not shown
# light: QTVVTQEPSLTVSPGGTVTLTCRSSTGAVTTSNYANWVQQKPGQAPRGLIGGTNKRAPGTPARFSGSLLGDKAALTLSGVQPEDEAEYYCALWYSNLWVFGGGTKLTVLRTVAAPSVFIFPPSDEQLKSGTASVVCLLNNFYPREAKVQWKVDNALQSGNSQESVTEQDSKDSTYSLSSTLTLSKADYEKHKVYACEVTHQGLSSPVTKSFNRGEC
# notes: also called VH3VL2
# B4: BsAb2-6-013 (bispecific antibody)
# heavy: not shown
# light: B3 light with T2A, Y89F
# notes: also called VH3VL3
# B5: BsAb2-5-004 (bispecific antibody)
# heavy: not shown
# light: B1 light with V38Y, G48T
# notes: also called VH1VL4
# B6: BsAb2-6-005 (bispecific antibody)
# heavy: not shown
# light: B1 light
# notes: also called VH1VL5
# B7: BsAb2-6-019 (bispecific antibody)
# heavy: not shown
# light: B1 light with V38Y, G48T
# notes: also called VH4VL4 (printed VH4VLA)
# B8: BsAb2-6-004 (bispecific antibody)
# heavy: not shown
# light: B1 light with V38Y, G48T
# notes: also called VH1VL4
# B9: BsAb2-6-014 (bispecific antibody)
# heavy: not shown
# light: B1 light with V38Y, G48T
# notes: also called VH3VL4
# B10: BsAb2-6-009 (bispecific antibody)
# heavy: not shown
# light: B1 light with V38Y, G48T
# notes: also called VH2VL4
# B11: BsAb2-5-014 (bispecific antibody)
# heavy: not shown
# light: B1 light with V38Y, G48T
# notes: also called VH3VL4
# B12: BsAb2-6-025 (bispecific antibody)
# heavy: not shown
# light: B1 light
# notes: also called VH5VL5
# B13: BsAb2-6-029 (bispecific antibody)
# heavy: not shown
# light: B1 light with V38Y, G48T
# notes: also called VH6VL4 (printed VH6VLA)
# B14: BsAb2-6-030 (bispecific antibody)
# heavy: not shown
# light: B1 light
# notes: also called VH6VL5
# B15: BsAb2-6-024 (bispecific antibody)
# heavy: not shown
# light: B1 light with V38Y, G48T
# notes: also called VH5VL4
# B16: BsAb2-5-005 (bispecific antibody)
# heavy: not shown
# light: B1 light
# notes: also called VH1VL5
# B17: BsAb2-5-025 (bispecific antibody)
# heavy: not shown
# light: B1 light
# notes: also called VH5VL5
# B18: BsAb2-5-030 (bispecific antibody)
# heavy: not shown
# light: B1 light
# notes: also called VH6VL5
# B19: BsAb2-6-010 (bispecific antibody)
# heavy: not shown
# light: B1 light
# notes: also called VH2VL5
# B20: BsAb2-5-001 (bispecific antibody)
# heavy: not shown
# light: B3 light with G48A, G59W
# notes: also called VH1VL1
# B21: BsAb2-6-002 (bispecific antibody)
# heavy: not shown
# light: B3 light
# notes: also called VH1VL2
# B22: BsAb2-5-002 (bispecific antibody)
# heavy: not shown
# light: B3 light
# notes: also called VH1VL2
# B23: BsAb2-5-003 (bispecific antibody)
# heavy: not shown
# light: B3 light with T2A, Y89F
# notes: also called VH1VL3
# B24: BsAb2-6-027 (bispecific antibody)
# heavy: not shown
# light: B3 light
# notes: also called VH6VL2
# B25: BsAb2-5-008 (bispecific antibody)
# heavy: not shown
# light: B3 light with T2A, Y89F
# notes: also called VH2VL3
# B26: BsAb2-5-027 (bispecific antibody)
# heavy: not shown
# light: B3 light
# notes: also called VH6VL2
# B27: BsAb2-5-021 (bispecific antibody)
# heavy: not shown
# light: B3 light with G48A, G59W
# notes: also called VH5VL1
# B28: BsAb2-6-022 (bispecific antibody)
# heavy: not shown
# light: B3 light
# notes: also called VH5VL2
# B29: BsAb2-5-023 (bispecific antibody)
# heavy: not shown
# light: B3 light with T2A, Y89F
# notes: also called VH5VL3
# B30: BsAb2-6-023 (bispecific antibody)
# heavy: not shown
# light: B3 light with T2A, Y89F
# notes: also called VH5VL3
# B31: BsAb2-6-007 (bispecific antibody)
# heavy: not shown
# light: B3 light
# notes: also called VH2VL2
# B32: BsAb2-5-026 (bispecific antibody)
# heavy: not shown
# light: B3 light with G48A, G59W
# notes: also called VH6VL1
# B33: BsAb2-5-006 (bispecific antibody)
# heavy: not shown
# light: B3 light with G48A, G59W
# notes: also called VH2VL1
# B34: BsAb2-6-008 (bispecific antibody)
# heavy: not shown
# light: B3 light with T2A, Y89F
# notes: also called VH2VL3
# B35: BsAb2-5-007 (bispecific antibody)
# heavy: not shown
# light: B3 light
# notes: also called VH2VL2
# B36: BsAb2-6-003 (bispecific antibody)
# heavy: not shown
# light: B3 light with T2A, Y89F
# notes: also called VH1VL3
# B37: BsAb2-6-028 (bispecific antibody)
# heavy: not shown
# light: B3 light with T2A, Y89F
# notes: also called VH6VL3
# B38: BsAb2-5-028 (bispecific antibody)
# heavy: not shown
# light: B3 light with T2A, Y89F
# notes: also called VH6VL3
# B39: BsAb2-5-022 (bispecific antibody)
# heavy: not shown
# light: B3 light
# notes: also called VH5VL2
# Biological target: T1, human CD3ε recombinant protein (human, UniProt P07766 23-126)
# T1 construct: also called human CD3E; huCD3ε
# T1 sequence (P07766 23-126 limits assumed): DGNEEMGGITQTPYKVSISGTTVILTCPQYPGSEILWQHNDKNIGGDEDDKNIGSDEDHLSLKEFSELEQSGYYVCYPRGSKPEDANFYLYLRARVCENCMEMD
# Assay: ELISA, recombinant protein
# Experimental: (§1) Anti-HBsAg/anti-CD3 bispecific antibodies generated in Example 1 are analyzed by standard ELISA techniques for their binding properties to HBsAg, human CD3E, and rhesus CD3ε recombinant protein, respectively.
row,Binder,EC50 [nM]
1,B1,0.28
2,B2,0.27
3,B3,0.32
4,B4,0.33

# Biological target: T2, HBsAg recombinant protein (hepatitis B virus)
# T2 chain: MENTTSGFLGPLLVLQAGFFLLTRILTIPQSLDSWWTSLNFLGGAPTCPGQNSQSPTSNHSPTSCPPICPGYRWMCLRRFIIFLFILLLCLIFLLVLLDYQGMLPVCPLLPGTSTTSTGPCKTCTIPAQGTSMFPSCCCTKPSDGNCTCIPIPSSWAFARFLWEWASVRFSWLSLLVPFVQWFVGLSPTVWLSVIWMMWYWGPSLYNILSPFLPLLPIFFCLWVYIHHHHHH
# Assay: ELISA, recombinant protein
# Experimental: as §1
row,Binder,EC50 [nM]
1,B5,0.36
2,B6,0.45
3,B7,0.53
4,B8,0.43
5,B1,0.16
6,B9,0.31
7,B10,0.45
8,B11,0.2
9,B12,1.5
10,B2,0.17
11,B13,0.48
12,B14,0.48
13,B15,0.51
14,B16,0.15
15,B17,0.2
16,B18,0.15
17,B19,0.46
18,B20,0.23
19,B21,0.46
20,B22,0.16

row,Binder,EC50 [nM]
1,B23,0.21
2,B24,0.72
3,B25,0.19
4,B26,0.16
5,B27,0.14
6,B28,0.77
7,B29,0.18
8,B30,1.09
9,B31,0.42
10,B32,0.18
11,B33,0.9
12,B34,0.57
13,B3,0.45
14,B4,0.47
15,B35,0.23
16,B36,0.47
17,B37,0.83
18,B38,0.19
19,B39,0.16

# Biological target: T3, rhesus CD3ε recombinant protein (rhesus)
# T3 construct: also called rhesus CD38 [sic]
# Assay: ELISA, recombinant protein
# Experimental: as §1
row,Binder,EC50 [nM]
1,B6,0.18
2,B1,0.26
3,B12,0.5
4,B2,0.27
5,B14,0.13
6,B16,0.31
7,B17,0.25
8,B18,0.23
9,B19,0.23
10,B20,0.72
11,B21,0.14
12,B22,0.3
13,B23,0.34
14,B24,0.21
15,B25,0.24
16,B26,0.28

row,Binder,EC50 [nM]
1,B27,3.88
2,B28,0.23
3,B29,0.22
4,B30,0.26
5,B31,0.19
6,B32,2.09
7,B33,2.12
8,B34,0.28
9,B3,0.24
10,B4,0.26
11,B35,0.4
12,B36,0.17
13,B37,0.21
14,B38,0.31
15,B39,0.31
